Patent US20190248900A1 (Y BIOLOGICS, published 2019)

T1: ITGA6-Fc
T1 construct: Fc fusion
T1 sequence (P23229 whole entry, species assumed, looked up): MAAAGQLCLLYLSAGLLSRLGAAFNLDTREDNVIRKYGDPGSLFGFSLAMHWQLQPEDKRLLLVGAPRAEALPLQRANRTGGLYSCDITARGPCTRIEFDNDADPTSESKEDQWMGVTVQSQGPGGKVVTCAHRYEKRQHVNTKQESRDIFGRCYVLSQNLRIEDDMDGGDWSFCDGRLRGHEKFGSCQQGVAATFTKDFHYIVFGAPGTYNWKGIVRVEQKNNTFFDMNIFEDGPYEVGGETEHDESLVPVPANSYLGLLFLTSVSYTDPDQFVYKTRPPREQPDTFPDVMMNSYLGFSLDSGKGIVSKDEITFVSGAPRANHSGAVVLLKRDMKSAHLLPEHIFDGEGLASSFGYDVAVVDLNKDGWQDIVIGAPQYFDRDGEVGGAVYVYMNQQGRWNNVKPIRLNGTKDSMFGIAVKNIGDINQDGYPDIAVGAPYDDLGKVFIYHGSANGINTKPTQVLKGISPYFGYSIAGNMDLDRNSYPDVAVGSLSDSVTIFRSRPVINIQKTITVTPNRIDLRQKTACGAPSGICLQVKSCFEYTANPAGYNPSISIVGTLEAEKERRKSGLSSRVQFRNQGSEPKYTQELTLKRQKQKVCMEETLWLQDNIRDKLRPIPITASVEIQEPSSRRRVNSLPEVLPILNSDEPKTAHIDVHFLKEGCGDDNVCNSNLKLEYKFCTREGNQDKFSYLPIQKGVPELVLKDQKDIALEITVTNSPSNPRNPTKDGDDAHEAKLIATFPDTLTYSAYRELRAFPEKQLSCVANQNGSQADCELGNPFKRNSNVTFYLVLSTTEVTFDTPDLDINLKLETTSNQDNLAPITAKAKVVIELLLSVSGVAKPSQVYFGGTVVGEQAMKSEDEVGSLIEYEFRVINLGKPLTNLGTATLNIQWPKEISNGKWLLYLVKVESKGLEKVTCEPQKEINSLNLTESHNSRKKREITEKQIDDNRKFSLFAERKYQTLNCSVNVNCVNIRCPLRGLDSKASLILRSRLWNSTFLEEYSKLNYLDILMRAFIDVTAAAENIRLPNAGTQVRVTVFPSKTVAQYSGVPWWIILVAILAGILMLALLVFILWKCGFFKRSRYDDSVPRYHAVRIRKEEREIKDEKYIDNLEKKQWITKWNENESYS

B1: PD1-29H3 (antibody, V domains shown)
VH: QMQLVESGGNLVQPGRSLRLSCAASGFTFDDYGMHWVRQAPGKGLEWVSSISWNSGTIGYADSVKGRFTISRDNAKNSLYLQMNSLRSEDTAVYYCARLLHQMNEHEFMDVWGQGTTVTVSS
VL: QLVLTQPSSMSEAPGQRVTISCSGGTSNIGTNAVNWYQQPPGKAPTLLIYYDDRLTSGVSDRFSGSKSGTSASLAISRLQSEDEADYYCAAWDDSLNGWVFGGGTKLTVL
notes: scFv-phage in the screening ELISA; later whole IgG
B2: PD1-31F3 (antibody, V domains shown)
VH: QVQLVQSGAEVKKPGSSVKVSCKASGGTFSSYAISWVRQAPGQGLEWMGGIIPLFSTAHSAQKFQGRVTITADESSSTAYMELSSLRSEDTAVYYCAKHKGLPFDWSPDGFDTWGQGTMVTVSS
VL: QFVLTQPPSVSGAPGQRVIISCTGSSSNIGAGYDVHWYQQLPGTAPKVLIYGNSDRPSGVPDRFSASKSATSASLAITGLQAEDEADYYCQSYDSSLSGYVFGTGTKVTVL
notes: as for B1
B3: PD1-32A6 (antibody, V domains shown)
VH: QVQLVQSGAEVKKPGSSVKVSCKASGDTFTRNAVSWVRQAPGEGLEWMADIIPIFGSANYAQKFQGRLTLTADVSTSTAYMELSSLRSEDTAVYYCARTIEGAFDIWGQGTMVTVSS
VL: DIQMTQSPSSVSASVGDRVTITCRASQGIVSWLAWYQQKPGKAPRLLIYRASDLETGVPSRFSGSGSGTDFTLTISSLQPEDVATYYCQQADSFPLTFGGGTKVEIK
notes: as for B1
B4: PD1-42G4 (antibody, V domains shown)
VH: QVQLVESGGGLVKPGGSLRLSCAASGFTFSDYYMSWIRQAPGKGLEWVSDISASGNSIYYADSVKRRFTISRDNSKNSLYLQMNSLRAEDTAVYYCVTSGPFGEFRNWGLGTLVTVSS
VL: DIQMTQSPSSLSASVGDRVTTTCRASQGISSYLAWYQQKPGKAPKLLIYAASTLQSGVPSRFSGSGSGTDFTLTISSLQPEDFATYFCQQSYTSPRTFGQGTKLDIK
notes: as for B1
B5: PD1-44B5 (antibody, V domains shown)
VH: QVQLVESGGGVVQPGRSLRLSCAASGFTFSSYAMHWVRQAPGKGLEWVAVISYDGSNKYYADSVKGRFTISRDNSKNTLYLQMNSLRAEDTAVYYCARLMHTFSVQYFLDVWGQGTTVTVSS
VL: QFVLTQSPSASGTPGQNIVISCSASTFNIGTTTVNWYQRLPGTAPKLLIYNYDQRPSGVPDRFSGSKSGTSASLAISGLQSEDEADYYCAAWDDSLNAWLFGGGTKLTVL
notes: as for B1
B6: PD1-51D9 (antibody, V domains shown)
VH: QVQLVESGAEVKKPGASVKLSCKASGYTFSSYWMHWVRQAPGQRLEWMGEINPGNGHTNYNEKFKSRVTITVDKSASTAYMELSSLRSEDTAVYYCAREGDGSYWGYFDSWGQGTPITVSS
VL: DIVMTQTPLSLPVTPGEPASISCRSSQSLLHSNGNNYLDWYLQKPGQSPQLLIYLGSYRASGVPDRFSGSGSGTDFTLKISRVEAEDVGLYYCMQGLQIPSTFGPGTKVDIK
notes: scFv-phage in the screening ELISA; whole IgG in the other assays

Key:
Assay in all cases: scFv-phage ELISA
[1] = target: T2, M2
T2 construct: also called PD1 mutant M2

[2] = target: T3, M2-1
T3 construct: also called PD1 mutant M2-1

[3] = target: T4, M2-2
T4 construct: also called PD1 mutant M2-2

[4] = target: T5, M3
T5 construct: also called PD1 mutant M3

[5] = target: T6, M4
T6 construct: also called PD1 mutant M4

[6] = target: T7, M11
T7 construct: also called PD1 mutant M11

[7] = target: T8, M5
T8 construct: also called PD1 mutant M5

[8] = target: T9, M5-1
T9 construct: also called PD1 mutant M5-1

[9] = target: T10, M5-2
T10 construct: also called PD1 mutant M5-2

[10] = target: T11, M6
T11 construct: also called PD1 mutant M6

[11] = target: T12, M12
T12 construct: also called PD1 mutant M12

[12] = target: T13, M13
T13 construct: also called PD1 mutant M13

[13] = target: T14, M14
T14 construct: also called PD1 mutant M14

[14] = target: T15, M7
T15 construct: also called PD1 mutant M7

[15] = target: T16, M7-1
T16 construct: also called PD1 mutant M7-1

[16] = target: T17, M7-2
T17 construct: also called PD1 mutant M7-2

[17] = target: T18, M8
T18 construct: also called PD1 mutant M8

[18] = target: T19, M9
T19 construct: also called PD1 mutant M9

[19] = target: T20, M10
T20 construct: also called PD1 mutant M10

[20] = target: T1, ITGA6-Fc
[21] = target: T21, M1
T21 construct: also called PD1 mutant M1

[22] = target: T22, M1-1
T22 construct: also called PD1 mutant M1-1

[23] = target: T23, M1-2
T23 construct: also called PD1 mutant M1-2

[24] = target: T24, antigen PD1 (coated, construct not stated) (UniProt Q15116 25-170, limits assumed)
T24 construct: also called PD1 antigen; PDCD1
T24 sequence (Q15116 25-170 limits assumed): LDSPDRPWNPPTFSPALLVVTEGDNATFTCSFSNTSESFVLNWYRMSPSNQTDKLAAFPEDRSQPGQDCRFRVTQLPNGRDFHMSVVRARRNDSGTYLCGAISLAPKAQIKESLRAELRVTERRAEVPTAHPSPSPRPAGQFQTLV

Row | Binder | OD490 [1] | OD490 [2] | OD490 [3] | OD490 [4] | OD490 [5] | OD490 [6] | OD490 [7] | OD490 [8] | OD490 [9] | OD490 [10] | OD490 [11] | OD490 [12] | OD490 [13] | OD490 [14] | OD490 [15] | OD490 [16] | OD490 [17] | OD490 [18] | OD490 [19] | OD490 [20] | further results
1 | B1 | 0.7 | 2.8 | 3.2 | 2.3 | 3.3 | 1 | 2 | 2 | 3.7 | 3.5 | 3 | 3.5 | 3.5 | 1.4 | 1.5 | 3.1 | 2.2 | 3.4 | 3 | 0.3 | OD490 [21]: 1.5; OD490 [22]: 3.2; OD490 [23]: 0.6; OD490 [24]: 3.6
2 | B2 | 0.7 | 3.5 | 3.3 | 1.9 | 2.7 | 0.8 | 1.1 | 1.3 | 3.4 | 3.3 | 2.6 | 3.3 | 3.4 | 0.7 | 0.8 | 1.5 | 1.7 | 3.2 | 3 | 0.4 | OD490 [21]: 3; OD490 [22]: 3; OD490 [23]: 3.2; OD490 [24]: 2
3 | B3 | 3.2 | 2.8 | 2.7 | 3 | 2.4 | 3.3 | 2.9 | 3.6 | 2.8 | 2.9 | 2.7 | 0.5 | 1.7 | 3.2 | 3.1 | 2.8 | 3.1 | 2.4 | 2.5 | 0.3 | OD490 [21]: 2.4; OD490 [22]: 2.6; OD490 [23]: 2.8; OD490 [24]: 3.5
4 | B4 | 0.6 | 0.6 | 3 | 2 | 1.9 | 1.7 | 1.6 | 1.9 | 3.5 | 3.3 | 2.7 | 3.7 | 3.7 | 2.5 | 2.8 | 2.7 | 2.1 | 3.4 | 3.1 | 0.4 | OD490 [21]: 1.8; OD490 [22]: 2.9; OD490 [23]: 0.6; OD490 [24]: 2.8
5 | B5 | 3.7 | 3.6 | 3.7 | 3.7 | 3.6 | 3.8 | 3.7 | 3.7 | 3.8 | 3.7 | 3.6 | 3.7 | 3.7 | 3.6 | 3.7 | 3.7 | 3.5 | 3.7 | 3.7 | 0.3 | OD490 [21]: 3.8; OD490 [22]: 3.6; OD490 [23]: 0.3; OD490 [24]: 3.8
6 | B6 | 0.1 | 0.4 | 0.6 | 0.3 | 1.1 | 0.1 | 0.1 | 0.1 | 0.6 | 0.3 | 0.3 | 0.7 | 0.8 | 0.1 | 0.1 | 0.3 | 0.1 | 0.3 | 0.1 | 0.1 | OD490 [21]: 0.2; OD490 [22]: 0.2; OD490 [23]: 0.4
